Reference: publication PMC11629876
pKd: −log10 of the molar value.

Columns and labels:
Experiment in all cases: ELISA; dose response: host component coated, recombinant protein added at increasing concentrations, 2 h 37°C; detected with mouse antiserum; KD by non-linear regression, one site-specific binding (GraphPad Prism)
[1] = target: plasminogen (human plasma) (human)
[2] = target: cellular fibronectin (human foreskin fibroblasts) (human)
[3] = target: collagen I (rat tail) (rat) (UniProt P02454)
integrin α5β1 = integrin α5β1 (UniProt P08648)
integrin α8β1 = integrin α8β1 (UniProt P53708)
integrin αVβ1 = integrin αVβ1 (UniProt P06756)
integrin αVβ3 = integrin αVβ3 (UniProt P06756)
integrin αVβ5 = integrin αVβ5 (UniProt P06756)
integrin αVβ6 = integrin αVβ6 (UniProt P06756)
[4] = target: plasma fibronectin (human plasma) (human)
[5] = target: vitronectin (human plasma) (human)

Sequence of integrin α5β1 (P08648 42-1049, chain 1 of 2): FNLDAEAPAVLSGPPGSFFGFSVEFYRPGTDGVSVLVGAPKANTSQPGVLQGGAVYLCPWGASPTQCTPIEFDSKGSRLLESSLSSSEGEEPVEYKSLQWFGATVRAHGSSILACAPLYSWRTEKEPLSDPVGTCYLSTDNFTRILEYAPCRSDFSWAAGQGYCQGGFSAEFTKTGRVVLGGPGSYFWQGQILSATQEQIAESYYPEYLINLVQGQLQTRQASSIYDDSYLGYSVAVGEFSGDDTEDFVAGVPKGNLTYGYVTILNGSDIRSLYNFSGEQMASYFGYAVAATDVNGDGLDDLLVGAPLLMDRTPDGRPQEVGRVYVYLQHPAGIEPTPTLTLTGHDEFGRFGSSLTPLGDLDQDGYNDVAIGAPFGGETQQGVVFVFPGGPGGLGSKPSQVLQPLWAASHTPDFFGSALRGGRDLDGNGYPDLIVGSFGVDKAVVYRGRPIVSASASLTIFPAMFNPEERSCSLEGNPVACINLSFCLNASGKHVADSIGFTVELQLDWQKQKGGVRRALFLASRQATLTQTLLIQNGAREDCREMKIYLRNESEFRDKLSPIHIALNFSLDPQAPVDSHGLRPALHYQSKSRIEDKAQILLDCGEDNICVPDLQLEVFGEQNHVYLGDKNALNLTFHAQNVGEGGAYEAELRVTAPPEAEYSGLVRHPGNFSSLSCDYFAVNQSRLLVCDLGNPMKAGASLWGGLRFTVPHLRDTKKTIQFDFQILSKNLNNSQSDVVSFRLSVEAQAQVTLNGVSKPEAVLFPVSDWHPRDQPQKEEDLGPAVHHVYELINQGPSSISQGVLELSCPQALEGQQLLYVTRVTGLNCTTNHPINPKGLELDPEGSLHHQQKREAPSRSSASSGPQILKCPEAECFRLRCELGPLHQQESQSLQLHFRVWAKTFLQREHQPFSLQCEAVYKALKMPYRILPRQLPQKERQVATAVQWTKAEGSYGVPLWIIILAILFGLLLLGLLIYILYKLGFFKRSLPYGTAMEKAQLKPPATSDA
Sequence of integrin α5β1 (P05556 21-728, chain 2 of 2, further chain): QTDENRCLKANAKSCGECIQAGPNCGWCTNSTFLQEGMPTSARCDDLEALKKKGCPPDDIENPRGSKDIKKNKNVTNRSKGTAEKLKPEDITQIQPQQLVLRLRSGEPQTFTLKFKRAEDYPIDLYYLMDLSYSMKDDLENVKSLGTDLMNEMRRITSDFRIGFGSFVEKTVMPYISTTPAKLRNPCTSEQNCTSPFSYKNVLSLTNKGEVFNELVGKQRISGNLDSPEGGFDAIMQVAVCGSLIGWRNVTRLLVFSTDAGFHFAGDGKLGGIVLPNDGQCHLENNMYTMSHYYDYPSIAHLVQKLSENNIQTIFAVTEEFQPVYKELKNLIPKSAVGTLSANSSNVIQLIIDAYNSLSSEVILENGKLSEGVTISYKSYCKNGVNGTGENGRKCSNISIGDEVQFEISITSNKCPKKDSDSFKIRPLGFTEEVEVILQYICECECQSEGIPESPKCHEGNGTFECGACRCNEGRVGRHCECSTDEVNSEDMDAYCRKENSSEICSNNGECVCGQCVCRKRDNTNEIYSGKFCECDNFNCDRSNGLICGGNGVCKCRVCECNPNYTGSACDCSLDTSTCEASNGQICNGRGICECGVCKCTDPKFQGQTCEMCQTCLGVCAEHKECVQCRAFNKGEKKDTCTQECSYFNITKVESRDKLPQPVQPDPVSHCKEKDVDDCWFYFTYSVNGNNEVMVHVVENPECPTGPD
Sequence of integrin α8β1 (P53708 39-1063, chain 1 of 2): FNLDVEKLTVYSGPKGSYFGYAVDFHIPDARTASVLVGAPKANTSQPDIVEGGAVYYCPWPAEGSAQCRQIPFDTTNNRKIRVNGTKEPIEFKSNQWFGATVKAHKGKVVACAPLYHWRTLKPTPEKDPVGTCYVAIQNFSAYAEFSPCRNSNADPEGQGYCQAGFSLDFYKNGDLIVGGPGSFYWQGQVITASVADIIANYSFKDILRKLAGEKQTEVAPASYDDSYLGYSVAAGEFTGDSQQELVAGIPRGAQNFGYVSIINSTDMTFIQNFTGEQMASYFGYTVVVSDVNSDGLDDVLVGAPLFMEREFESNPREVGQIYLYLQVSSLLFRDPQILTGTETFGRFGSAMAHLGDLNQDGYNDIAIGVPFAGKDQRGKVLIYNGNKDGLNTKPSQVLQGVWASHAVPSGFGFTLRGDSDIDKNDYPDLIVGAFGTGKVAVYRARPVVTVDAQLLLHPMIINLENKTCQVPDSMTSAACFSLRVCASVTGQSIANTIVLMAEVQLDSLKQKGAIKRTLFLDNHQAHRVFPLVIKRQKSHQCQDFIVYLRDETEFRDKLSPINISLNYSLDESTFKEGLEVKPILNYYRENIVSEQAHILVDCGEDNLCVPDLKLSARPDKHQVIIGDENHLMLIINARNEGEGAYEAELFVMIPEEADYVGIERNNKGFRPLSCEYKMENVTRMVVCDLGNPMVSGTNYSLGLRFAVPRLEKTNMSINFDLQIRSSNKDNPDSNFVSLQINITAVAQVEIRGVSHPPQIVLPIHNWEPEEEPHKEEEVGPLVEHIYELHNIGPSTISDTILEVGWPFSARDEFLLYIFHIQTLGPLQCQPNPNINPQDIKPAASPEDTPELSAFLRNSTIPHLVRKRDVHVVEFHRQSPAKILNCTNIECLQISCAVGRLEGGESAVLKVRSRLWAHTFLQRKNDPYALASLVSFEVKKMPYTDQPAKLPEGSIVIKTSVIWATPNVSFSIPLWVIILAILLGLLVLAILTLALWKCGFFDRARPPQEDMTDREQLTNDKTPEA
Sequence of integrin α8β1 (P05556 21-728, chain 2 of 2, further chain): as the sequence (P05556 21-728, chain 2 of 2, further chain) above
Sequence of collagen I (rat tail) (rat) (P02454 152-1207, chain 1 of 2): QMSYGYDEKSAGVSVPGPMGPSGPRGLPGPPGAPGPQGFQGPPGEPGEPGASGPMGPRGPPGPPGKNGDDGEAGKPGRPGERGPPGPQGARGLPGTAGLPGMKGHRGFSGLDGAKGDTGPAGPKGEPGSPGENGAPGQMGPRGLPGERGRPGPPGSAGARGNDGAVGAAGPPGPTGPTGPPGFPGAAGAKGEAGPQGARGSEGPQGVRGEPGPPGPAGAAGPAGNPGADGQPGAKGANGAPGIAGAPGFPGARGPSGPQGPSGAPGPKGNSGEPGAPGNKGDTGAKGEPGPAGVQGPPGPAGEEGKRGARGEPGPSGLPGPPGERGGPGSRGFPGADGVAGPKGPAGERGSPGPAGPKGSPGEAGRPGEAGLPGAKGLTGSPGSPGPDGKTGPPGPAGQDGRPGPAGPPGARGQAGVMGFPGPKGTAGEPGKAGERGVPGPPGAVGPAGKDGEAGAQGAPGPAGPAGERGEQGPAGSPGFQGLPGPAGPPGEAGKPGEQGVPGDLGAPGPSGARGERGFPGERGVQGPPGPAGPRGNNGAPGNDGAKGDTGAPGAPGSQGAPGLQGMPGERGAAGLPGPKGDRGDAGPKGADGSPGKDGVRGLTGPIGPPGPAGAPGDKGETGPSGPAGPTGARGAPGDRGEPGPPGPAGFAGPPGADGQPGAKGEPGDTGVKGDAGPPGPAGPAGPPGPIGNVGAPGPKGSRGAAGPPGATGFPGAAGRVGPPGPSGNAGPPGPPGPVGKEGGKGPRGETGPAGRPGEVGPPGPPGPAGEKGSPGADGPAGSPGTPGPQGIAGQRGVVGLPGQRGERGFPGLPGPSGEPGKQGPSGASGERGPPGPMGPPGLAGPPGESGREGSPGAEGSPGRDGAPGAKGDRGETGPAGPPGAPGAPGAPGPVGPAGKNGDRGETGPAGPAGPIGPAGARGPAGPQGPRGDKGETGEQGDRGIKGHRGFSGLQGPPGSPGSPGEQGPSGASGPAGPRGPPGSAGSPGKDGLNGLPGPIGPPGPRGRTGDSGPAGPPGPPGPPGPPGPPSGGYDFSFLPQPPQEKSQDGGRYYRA
Sequence of collagen I (rat tail) (rat) (P02466 86-1125, chain 2 of 2, further chain): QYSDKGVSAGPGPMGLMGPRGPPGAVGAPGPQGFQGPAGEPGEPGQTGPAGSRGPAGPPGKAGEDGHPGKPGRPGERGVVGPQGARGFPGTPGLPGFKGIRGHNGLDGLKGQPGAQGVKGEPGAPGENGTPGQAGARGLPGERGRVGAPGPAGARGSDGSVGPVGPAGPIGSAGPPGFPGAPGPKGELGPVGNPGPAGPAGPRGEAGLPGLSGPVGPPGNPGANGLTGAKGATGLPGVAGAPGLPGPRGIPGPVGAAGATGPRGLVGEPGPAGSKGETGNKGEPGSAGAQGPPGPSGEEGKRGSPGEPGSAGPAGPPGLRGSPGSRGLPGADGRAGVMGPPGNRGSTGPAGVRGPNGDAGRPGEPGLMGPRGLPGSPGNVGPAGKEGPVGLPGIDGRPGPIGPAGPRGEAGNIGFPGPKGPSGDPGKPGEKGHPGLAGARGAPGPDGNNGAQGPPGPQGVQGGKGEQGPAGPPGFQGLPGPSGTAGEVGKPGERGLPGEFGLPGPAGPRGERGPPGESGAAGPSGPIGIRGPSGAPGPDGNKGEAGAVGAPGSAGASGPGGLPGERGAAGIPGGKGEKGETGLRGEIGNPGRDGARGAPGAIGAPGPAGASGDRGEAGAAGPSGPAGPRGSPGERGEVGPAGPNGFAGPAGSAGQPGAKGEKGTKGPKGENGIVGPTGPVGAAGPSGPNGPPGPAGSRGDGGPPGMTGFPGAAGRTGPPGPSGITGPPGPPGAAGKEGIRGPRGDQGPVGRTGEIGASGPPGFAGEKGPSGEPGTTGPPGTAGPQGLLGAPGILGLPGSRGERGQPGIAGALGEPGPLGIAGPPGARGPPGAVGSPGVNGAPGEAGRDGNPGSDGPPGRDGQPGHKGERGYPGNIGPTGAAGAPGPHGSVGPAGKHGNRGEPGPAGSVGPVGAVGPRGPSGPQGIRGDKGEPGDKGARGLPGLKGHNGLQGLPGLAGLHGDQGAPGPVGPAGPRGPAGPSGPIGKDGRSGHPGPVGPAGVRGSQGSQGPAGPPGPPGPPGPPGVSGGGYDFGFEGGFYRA

| Substance | pKd [1] | pKd [2] | pKd [3] | pKd (integrin α5β1) | pKd (integrin α8β1) | pKd (integrin αVβ1) | pKd (integrin αVβ3) | pKd (integrin αVβ5) | pKd (integrin αVβ6) | pKd [4] | pKd [5] |
| --- | --- | --- | --- | --- | --- | --- | --- | --- | --- | --- | --- |
| recombinant LIC11051 (rLIC11051), leucine-rich repeat protein of Leptospira interrogans serovar Copenhageni (natural protein) | 7.37 | – | – | – | – | – | – | – | – | – | – |
| recombinant LIC11505 (rLIC11505), leucine-rich repeat protein of Leptospira interrogans serovar Copenhageni (natural protein) | 7.62 | 7.70 | 7.10 | 7.13 | 6.72 | 6.87 | 6.82 | 6.96 | 7.13 | 7.29 | 7.19 |
